Patent US5204445A, “Peptides and antibodies that inhibit integrin-ligand binding” (The Scripps Research Institute, priority 1989, dated 1993)

Legend:
[1] = molecular target: T1, alpha subunit (GPIIb) (Homo sapiens, UniProt P05106+P08514); test: Chemical crosslinking of 125I-labeled RGD peptide to platelets (BS3), SDS-PAGE and autoradiography; format: binding; conditions: 125I-Fn-7 20 μM, thrombin-stimulated platelets, 45 min at 22° C., BS3 0.2 mM
T1 construct: Platelets were isolated from fresh human blood collected into acid/citrate/dextrose; endogenous in cells; host or cells: washed human platelets, thrombin-stimulated

[2] = molecular target: T2, beta subunit (GPIIIa) (Homo sapiens, UniProt P05106+P08514); test: as above; format: binding; conditions: 125I-Fn-7 20 μM, thrombin-stimulated platelets, 45 min at 22° C., BS3 0.2 mM
T2 construct: Platelets were isolated from fresh human blood collected into acid/citrate/dextrose; endogenous in cells; host or cells: washed human platelets, thrombin-stimulated or nonstimulated
Procedure: FIG. 2 illustrates the results of the crosslinking of an RGD peptide to discrete sites in the beta subunit (GPIIIa) of an Integrin adhesion receptor. The ^125 I-labeled RGD peptide, Fn-7 (20 μM), was bound to platelet (6×10^8 /ml) for 45 min at 22° C., and crosslinked with BS^3 (0.2 mM). The fragmentation patterns after proteolysis were analyzed by SDS-PAGE [Laemmli, Nature. 227:680 (1970)] and autoradiography. […] Lanes 2-7, GPIIIa:Fn-7 bands were excised from gels, subjected to proteolysis and then analyzed by SDS-PAGE (15% gels, reducing conditions). For lanes 2-5, GPIIIA:Fn-7 bands were excised and digestions with V-8 protease were performed within the gel slices as described in Cleveland et al., J. Biol. Chem., 252:1102 (1977).
Platelet binding of Fn-7 followed the protocols previously described for measuring platelet interactions with adhesive proteins and with this and other peptides. See, Ginsberg et al., J. Biol. Chem., 260:3931-3936 (1985); Lam et al , Fed. Proc. Fed. Am. Soc. Exp. Biol., 44:1126 (1985); and Marguerie et al., supra. […]
The cell-bound ligand was recovered by centrifugation through 20% sucrose, and the cells were extracted in PBS containing 1% Nonidet P40 and […] N-ethylmaleimide (Sigma). […] The cross-linked samples were analyzed by electrophoresis (SDS-PAGE) on polyacrylamide vertical slab gels in the buffer system of Laemmli, Nature, […] (1970). […]

## KYGRRGDS [Fn-7, RGD-peptide with lysine for crosslinking and tyrosine for radioiodination]
[1]
  crosslinking to the alpha subunit (GPIIb): more minor crosslinking
[2]
  crosslinking to the beta subunit (GPIIIa): predominance
